From publication PMC4476693, “Role of Subunit Exchange and Electrostatic Interactions on the Chaperone Activity of Mycobacterium leprae HSP18” (PLoS ONE, 2015)

Legend:
[1] = biological target: the molecule itself; test: SEC; analytical gel filtration (TSK-GEL G4000SWXL, HPLC), 25°C, 0.5 mg/ml protein in 50 mM phosphate buffer pH 7.5, no NaCl; column calibrated with molecular weight standards
[2] = biological target: the molecule itself; test: SEC; analytical gel filtration (TSK-GEL G4000SWXL, HPLC), 25°C, 0.5 mg/ml protein in 50 mM phosphate buffer pH 7.5 with 0.05, 0.15 or 0.5 M NaCl; number of subunits printed for 0.5 M NaCl

B1: Mycobacterium leprae HSP18 (natural protein, UniProt P12809 1-148, looked up)
chain: MLMRTDPFRELDRFAEQVLGTSARPAVMPMDAWREGEEFVVEFDLPGIKADSLDIDIERNVVTVRAERPGVDPDREMLAAERPRGVFNRQLVLGENLDTERILASYQEGVLKLSIPVAERAKPRKISVDRGNNGHQTINKTAHEIIDA
notes: wild-type small heat shock protein HSP18 (18 kDa antigen) of Mycobacterium leprae; Large homo-oligomer: 29 subunits without NaCl, approximately 12 subunits in 0.5 M NaCl (gel filtration); also called 18 kDa antigen
stoichiometry N [1]: 29 subunits
stoichiometry N [2]: ~12 subunits
